Reference: PMC9482650, “Quantitative fragmentomics allow affinity mapping of interactomes” (Nature Communications, 2022)

T1: APBA1_2, Q02410
T1 sequence (Q02410 742-832, limits assumed, looked up): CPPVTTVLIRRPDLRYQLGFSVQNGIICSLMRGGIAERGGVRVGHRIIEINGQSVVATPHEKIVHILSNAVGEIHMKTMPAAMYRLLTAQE

T2: APBA2_1, Q99767
T2 sequence (Q99767 563-664, limits assumed, looked up): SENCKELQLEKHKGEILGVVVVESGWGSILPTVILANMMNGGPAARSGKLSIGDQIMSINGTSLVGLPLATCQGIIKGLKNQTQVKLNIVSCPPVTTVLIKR

T3: APBA3_1, O96018
T3 sequence (O96018 389-490, limits assumed, looked up): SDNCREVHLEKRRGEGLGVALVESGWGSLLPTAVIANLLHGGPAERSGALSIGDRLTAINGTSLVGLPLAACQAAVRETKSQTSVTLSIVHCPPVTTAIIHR

T4: DFNB31_3, Q9P202
T4 sequence (Q9P202 811-907, limits assumed, looked up): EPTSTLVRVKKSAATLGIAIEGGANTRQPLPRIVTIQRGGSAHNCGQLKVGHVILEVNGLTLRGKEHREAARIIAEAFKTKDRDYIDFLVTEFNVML

T5: DVL3, Q92997
T5 sequence (Q92997 244-331, limits assumed, looked up): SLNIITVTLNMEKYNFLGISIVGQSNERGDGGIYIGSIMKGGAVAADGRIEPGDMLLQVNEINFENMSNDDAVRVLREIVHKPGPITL

T6: GRIP1_3, Q9Y3R0
T6 sequence (Q9Y3R0 247-346, limits assumed, looked up): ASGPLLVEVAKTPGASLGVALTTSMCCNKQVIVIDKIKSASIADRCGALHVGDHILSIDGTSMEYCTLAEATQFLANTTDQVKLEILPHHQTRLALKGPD

T7: HTRA3, P83110
T7 sequence (P83110 354-453, limits assumed, looked up): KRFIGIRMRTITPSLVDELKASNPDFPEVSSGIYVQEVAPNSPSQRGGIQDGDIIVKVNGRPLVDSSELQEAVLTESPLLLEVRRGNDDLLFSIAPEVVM

T8: LNX2_3, Q8N448
T8 sequence (Q8N448 463-564, limits assumed, looked up): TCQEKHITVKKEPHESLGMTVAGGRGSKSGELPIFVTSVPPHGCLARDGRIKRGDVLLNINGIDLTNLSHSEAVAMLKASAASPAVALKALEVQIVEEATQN

T9: LRRC7, Q96NW7
T9 sequence (Q96NW7 1440-1537, limits assumed, looked up): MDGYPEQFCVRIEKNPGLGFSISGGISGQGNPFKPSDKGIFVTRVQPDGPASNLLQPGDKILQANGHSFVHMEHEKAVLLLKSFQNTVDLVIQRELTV

T10: NHERF3_3, Q5T2W1
T10 sequence (Q5T2W1 238-333, limits assumed, looked up): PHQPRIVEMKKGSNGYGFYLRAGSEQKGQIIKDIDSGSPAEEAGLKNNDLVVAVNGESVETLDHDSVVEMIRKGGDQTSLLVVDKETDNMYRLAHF

T11: NHERF3_4, Q5T2W1
T11 sequence (Q5T2W1 373-468, limits assumed, looked up): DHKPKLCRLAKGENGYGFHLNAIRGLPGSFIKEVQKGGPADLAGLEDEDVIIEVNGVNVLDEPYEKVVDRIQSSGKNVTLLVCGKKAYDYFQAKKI

T12: PDZD2_2, O15018
T12 sequence (O15018 329-429, limits assumed, looked up): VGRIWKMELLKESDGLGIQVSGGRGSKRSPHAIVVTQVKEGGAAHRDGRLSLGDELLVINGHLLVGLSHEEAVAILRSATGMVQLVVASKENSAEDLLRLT

T13: PDZD7_3, Q9H5P4
T13 sequence (Q9H5P4 857-944, limits assumed, looked up): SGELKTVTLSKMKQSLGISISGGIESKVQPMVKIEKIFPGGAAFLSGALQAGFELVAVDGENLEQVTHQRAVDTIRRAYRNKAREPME

T14: TJP3_3, O95049
T14 sequence (O95049 375-456, limits assumed, looked up): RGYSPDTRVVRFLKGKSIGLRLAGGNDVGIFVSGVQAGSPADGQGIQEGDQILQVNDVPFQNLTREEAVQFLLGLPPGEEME


Assays:
Experiment in all cases: holdup assay
Design in all cases: key: below the threshold = too weak to quantify, mostly under pKd 3.1 to 4
Conditions in all cases: plain residues with an end cap or a label only (N-terminal biotin on a linker: ado-ado)
APBA1_2, Q02410 = biological target: T1, APBA1_2, Q02410
APBA2_1, Q99767 = biological target: T2, APBA2_1, Q99767
APBA3_1, O96018 = biological target: T3, APBA3_1, O96018
DFNB31_3, Q9P202 = biological target: T4, DFNB31_3, Q9P202
DLG2_2, Q15700 = biological target: DLG2_2, Q15700
Sequence of DLG2_2, Q15700 (Q15700 189-283): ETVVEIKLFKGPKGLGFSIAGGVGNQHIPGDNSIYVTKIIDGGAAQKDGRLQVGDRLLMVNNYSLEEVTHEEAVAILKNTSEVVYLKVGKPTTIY

DVL3, Q92997 = biological target: T5, DVL3, Q92997
FRMPD2_3, Q68DX3 = biological target: FRMPD2_3, Q68DX3
Sequence of FRMPD2_3, Q68DX3 (Q68DX3 1073-1166): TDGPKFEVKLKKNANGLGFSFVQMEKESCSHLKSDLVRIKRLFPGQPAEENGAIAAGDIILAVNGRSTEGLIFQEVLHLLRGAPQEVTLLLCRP

GIPC2, Q8TF65 = biological target: GIPC2, Q8TF65
Sequence of GIPC2, Q8TF65 (Q8TF65 112-203): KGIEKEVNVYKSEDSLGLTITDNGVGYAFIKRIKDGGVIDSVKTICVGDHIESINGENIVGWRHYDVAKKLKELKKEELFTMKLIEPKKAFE

GRIP1_3, Q9Y3R0 = biological target: T6, GRIP1_3, Q9Y3R0
GRIP2_7, Q9C0E4 = biological target: GRIP2_7, Q9C0E4
Sequence of GRIP2_7, Q9C0E4 (Q9C0E4 934-1023): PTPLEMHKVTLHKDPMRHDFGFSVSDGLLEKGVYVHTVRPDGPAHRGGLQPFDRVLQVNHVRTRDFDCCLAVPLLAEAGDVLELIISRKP

HTRA3, P83110 = biological target: T7, HTRA3, P83110
IL16_3, Q14005 = biological target: IL16_3, Q14005
Sequence of IL16_3, Q14005 (Q14005 1107-1207): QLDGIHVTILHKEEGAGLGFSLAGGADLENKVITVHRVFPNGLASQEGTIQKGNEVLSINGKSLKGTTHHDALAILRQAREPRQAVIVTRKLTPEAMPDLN

Inadl_5, Q8NI35 = biological target: Inadl_5, Q8NI35
Sequence of Inadl_5, Q8NI35 (Q8NI35 673-780): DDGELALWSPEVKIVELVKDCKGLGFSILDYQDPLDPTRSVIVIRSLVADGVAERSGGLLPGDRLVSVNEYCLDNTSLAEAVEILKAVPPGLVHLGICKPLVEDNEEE

Inadl_9, Q8NI35 = biological target: Inadl_9, Q8NI35
Sequence of Inadl_9, Q8NI35 (Q8NI35 1530-1615): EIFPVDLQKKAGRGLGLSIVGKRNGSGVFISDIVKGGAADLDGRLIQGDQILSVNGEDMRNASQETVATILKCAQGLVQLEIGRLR

LNX1_1, Q8TBB1 = biological target: LNX1_1, Q8TBB1
Sequence of LNX1_1, Q8TBB1 (Q8TBB1 261-371): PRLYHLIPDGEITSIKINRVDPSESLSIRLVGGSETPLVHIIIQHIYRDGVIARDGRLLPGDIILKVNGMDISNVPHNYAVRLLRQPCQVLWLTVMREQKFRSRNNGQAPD

LNX2_3, Q8N448 = biological target: T8, LNX2_3, Q8N448
LRRC7, Q96NW7 = biological target: T9, LRRC7, Q96NW7
MAST1, Q9Y2H9 = biological target: MAST1, Q9Y2H9
Sequence of MAST1, Q9Y2H9 (Q9Y2H9 962-1065): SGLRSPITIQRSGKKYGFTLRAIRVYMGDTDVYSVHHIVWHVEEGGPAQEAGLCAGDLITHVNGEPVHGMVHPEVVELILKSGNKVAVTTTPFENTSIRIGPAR

NHERF3_3, Q5T2W1 = biological target: T10, NHERF3_3, Q5T2W1
NHERF3_4, Q5T2W1 = biological target: T11, NHERF3_4, Q5T2W1
PDZD2_2, O15018 = biological target: T12, PDZD2_2, O15018
PDZD7_3, Q9H5P4 = biological target: T13, PDZD7_3, Q9H5P4
TJP1_3, Q07157 = biological target: TJP1_3, Q07157
Sequence of TJP1_3, Q07157 (Q07157 416-512): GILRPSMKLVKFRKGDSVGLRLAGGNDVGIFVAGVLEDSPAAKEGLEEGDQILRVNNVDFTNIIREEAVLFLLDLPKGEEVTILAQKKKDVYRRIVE

TJP3_3, O95049 = biological target: T14, TJP3_3, O95049

| Binder | pKd (APBA1_2, Q02410) | pKd (APBA2_1, Q99767) | pKd (APBA3_1, O96018) | pKd (DFNB31_3, Q9P202) | pKd (DLG2_2, Q15700) | pKd (DVL3, Q92997) | pKd (FRMPD2_3, Q68DX3) | pKd (GIPC2, Q8TF65) | pKd (GRIP1_3, Q9Y3R0) | pKd (GRIP2_7, Q9C0E4) | pKd (HTRA3, P83110) | pKd (IL16_3, Q14005) | pKd (Inadl_5, Q8NI35) | pKd (Inadl_9, Q8NI35) | pKd (LNX1_1, Q8TBB1) | pKd (LNX2_3, Q8N448) | pKd (LRRC7, Q96NW7) | pKd (MAST1, Q9Y2H9) | pKd (NHERF3_3, Q5T2W1) | pKd (NHERF3_4, Q5T2W1) | further results |
| --- | --- | --- | --- | --- | --- | --- | --- | --- | --- | --- | --- | --- | --- | --- | --- | --- | --- | --- | --- | --- | --- |
| HSGYRLNDYV [CLDN14, O95500] | 3.84 | below the threshold | below the threshold | below the threshold | below the threshold | 3.66 | below the threshold | below the threshold | below the threshold | below the threshold | 4.55 | below the threshold | 3.48 | 3.58 | below the threshold | below the threshold | below the threshold | below the threshold | below the threshold | below the threshold | pKd (PDZD2_2, O15018): 4.79; pKd (PDZD7_3, Q9H5P4): 4.19; pKd (TJP1_3, Q07157): below the threshold; pKd (TJP3_3, O95049): 4.28 |
| KKMPSIESDV [GRIN2A, Q12879] | below the threshold | below the threshold | below the threshold | below the threshold | 5.04 | below the threshold | below the threshold | 3.84 | below the threshold | below the threshold | below the threshold | below the threshold | below the threshold | below the threshold | 4.04 | below the threshold | 3.91 | below the threshold | below the threshold | below the threshold | pKd (PDZD2_2, O15018): 4.91; pKd (PDZD7_3, Q9H5P4): below the threshold; pKd (TJP1_3, Q07157): below the threshold; pKd (TJP3_3, O95049): below the threshold |

Now from value to binder, other results behind:

| pKd (APBA1_2, Q02410) | pKd (APBA2_1, Q99767) | pKd (APBA3_1, O96018) | pKd (DFNB31_3, Q9P202) | pKd (DLG2_2, Q15700) | pKd (DVL3, Q92997) | pKd (FRMPD2_3, Q68DX3) | pKd (GIPC2, Q8TF65) | pKd (GRIP1_3, Q9Y3R0) | pKd (GRIP2_7, Q9C0E4) | pKd (HTRA3, P83110) | pKd (IL16_3, Q14005) | pKd (Inadl_5, Q8NI35) | pKd (Inadl_9, Q8NI35) | pKd (LNX1_1, Q8TBB1) | pKd (LNX2_3, Q8N448) | pKd (LRRC7, Q96NW7) | pKd (MAST1, Q9Y2H9) | pKd (NHERF3_3, Q5T2W1) | pKd (NHERF3_4, Q5T2W1) | Binder | further results |
| --- | --- | --- | --- | --- | --- | --- | --- | --- | --- | --- | --- | --- | --- | --- | --- | --- | --- | --- | --- | --- | --- |
| below the threshold | below the threshold | below the threshold | 4 | below the threshold | below the threshold | below the threshold | below the threshold | below the threshold | below the threshold | below the threshold | below the threshold | below the threshold | 3.58 | below the threshold | below the threshold | 3.85 | 4.71 | 3.59 | 3.48 | TSQESEDTYL [TBC1D10A, Q9BXI6] | pKd (PDZD2_2, O15018): 4.49; pKd (PDZD7_3, Q9H5P4): 3.9; pKd (TJP1_3, Q07157): below the threshold; pKd (TJP3_3, O95049): below the threshold |
| below the threshold | below the threshold | below the threshold | below the threshold | 4.04 | below the threshold | below the threshold | 3.84 | below the threshold | below the threshold | below the threshold | below the threshold | below the threshold | below the threshold | 4.5 | below the threshold | 3.72 | 4.31 | below the threshold | below the threshold | DDENIRTSDV [PLEKHA2, Q9HB19] | pKd (PDZD2_2, O15018): 5.74; pKd (PDZD7_3, Q9H5P4): 4.73; pKd (TJP1_3, Q07157): below the threshold; pKd (TJP3_3, O95049): below the threshold |
